According to patent publication US20080234471A1:

Assays:
GnGn-peptide [1] = target: GnGn-peptide
GnGn-peptide [2] = target: GnGn-peptide; remark: listed apart in the source

Substance	Specific activity (GnGn-peptide [1]) [mU/mg]	Km-Value (GnGnF^6-peptide) [µM]	Km-Value (GnGn-peptide [2]) [µM]	Rel. Activity (MM-peptide) [%]
GlcNAc-α1,3-fucosyl transferase isolated from mung bean seedlings (enzyme)	43400	–	–	–
recombinant GlcNAc-α1,3-fucosyl transferase (enzyme)	–	130	190	0
